According to the nanobody polyreactivity screen of Harvey et al. (2022):

Test: yeast display, Sf9 membrane polyspecificity reagent, FACS + sequencing; frameworks hold sequencing errors
How it was run: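 Synthetic nanobody libraries on Saccharomyces cerevisiae BJ5465 were galactose-induced for 36–48 hours, stained 1 hour at 4 °C with 10% biotinylated, detergent-solubilized Sf9 membrane reagent and enriched on streptavidin microbeads. FACS then separated cells into low and high (top ~1%) gates by anti-HA (expression) and streptavidin (reagent binding) fluorescence. Genes were colony-PCR amplified, MiSeq 2 × 250 sequenced and CDR-length filtered. A clone's polyreactivity label is that of its gate of origin.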

Sequence	polyreactivity (PSR sort gate)
QVQLEESGGGVVQAGGSLRLSCAASGRTLSHYAIGWYRQAPGKERELVAVISWSGTSTYYADSVKGRFTISRDNAKNTVYLQMNSLKPEDTAVYYCNADTYGYYLWTGAVSAGDDYWGQGTQVTVSS	low polyreactivity
QVQLEESGGGLVQAGGSLRISCAASGFIYRDYDMGWYRQAPGKERELVAAISLSGGSTYYADSVKGRFTISRDNAKNTVYLQMNSLKPEDTAVYYCAAVSAYEGNYWGQGTQVTVSS	high polyreactivity
QVQLVESGGGLVQAGGSLRLSCAASGSIFNANAMGLYIQAPGKERELVASISGGAGSTYYADSVKGRFTISRDNAKNTVYLQMNSLKPEDTAVYYCNARWQEPLKYDYWGQGTQVTVSS	low polyreactivity
QVQLVESGGGLVQAGGSLRLSCAASGLTFDVYAMGWYRQAPGKERELVAALSTSGGRTYSADSVKGRFTISRDNAKNTVYLQMNSLKPEVTAVYYCNAGYDYYWRYYWYWYAFNYWGQGTQVTVSS	high polyreactivity
QVQLVESGGGLVQAGGSLRLSCAASGRIFPWYAMGWYRQAPGKERALVAAINWRAGRTYYADSVKGRFTISRDNAKNTVYLQMNSLKPEDTAVYYCAAETYSSGEWYDYWGQGTQVTVSS	high polyreactivity
QVQLVESGGGLVQAGGSLRLSCAASGRIFNFYAMGWYRQAPGKEWELVAAITNGGGTKYADSVKGRFTISRDNAKNTVYLQMNSLKPEDTAVYYCAARYYRRQRGQTSHSRFGYWGQGTQVTVSS	high polyreactivity
QVHLVESGGGLVQAGGSLRLSCAATGLTFHKYAMGWYRQSPGKERELVAAISSSGGSTYYADSVKGRFTISRDNAKNTVYLQMNSLKPEDTAVYYCATRLPYYTHAGYNYWGQGTQVTVSS	high polyreactivity
QVQLVESGGGLVQAGRSLRVRCAASGSTFGLYAKGWYRQAPGKERELVADITWSGGTTYYADSVMGRFTFSRDNAKNTVYLEINSLKPEDTAVYYCAARYPWVYDDFDYWGQGTQVNVSS	low polyreactivity
QFQLVESGGGLVQAGGSLRLRCAASGLIIKKYTMGWYRQAPGKEMELVASISKSGGSTYYADSVKGRFTISRDNAKNTVYLQMNSLKPEDTAVYYCNRVTHYIRFDYWGQGTQVTVSS	low polyreactivity
QVQLVESGGGLVQAGGSLRLSCAASGRTFGWTVMGWYRPAPGKDRELVAAISGSGGSTYYADSVKGRFTISRDNAKNTVYLQMNSLKPEDTAVYYCAALYGPAREYDYWGQGTQVTVSS	low polyreactivity
QVQLVESGGGLVQARGSLRLSCAASGSISDYYAMGWYRQAPGKERELVAAISWDGGSTYYADSVKGRFTISRDNAKNTVYLQLNSLKPEDTAVYYCNAGSGASVGNNILYDYWGQGTQVTVSS	low polyreactivity
QVQLVESGGGLVQAGGSLRLSCAASGSSLWYNTMGWYRQAPGKERELVATISGSGANTYYADSVKGRFTISRDNAKNTDYLQMNSLKPEDTAGYYCAAVYRRWGYSSEYDYWGQGTQVTVSS	high polyreactivity
QVQLVESGGGLVQAGGSLRLTCDASGSIFSVYAMGWYRQAPGKERELVAAITSSGGITYYADSVKGRFTISRDNSKNTVYLQMNSLKPEDTAVYYCATDRVLHYWVLSMDYWGQGTQVTVSS	low polyreactivity
QVQLVESGGGLVQAGGSLRLSCPASGFTFSYYVMGWYRQSPGKERELVAAISSGGRTYYADSVKGRFTISRDNAKNTVYFQMNSLKPEDTAVYYCAAVRYSNEDDYWGQGTQVTVSS	high polyreactivity
QLQHVESGRGLVQAGGSLRLSCADSGRTYGGYDMGWYRQATVKERELVAAISYSGGSTYYADSVKGRFTISRDNAKNTVYLEMNSLKPEDTAVFYCAADGYDAYYWGQGTQVTVSS	low polyreactivity
QVQLVESGGGLVQAGGSLRLSCAASGCIFFQYAMGWYIQAPGKERELVAAISGSGVTTYYADSVKGRFTISRDNAKNTVYLQMNSLKPEDTAVYYCNAALRWKYDWGQGTQVTVSS	low polyreactivity
QVQLVESGGGLVQAGGSLRLSCAASGFTFRWYAMGWYRPAPGKERELVADISRGGSTNYADSVKGRFTISRDNAKNTVYLQMNSLKPEDTAVYYCAAVVYRATYRVGGYLWYYYWGQGTQVTVSS	high polyreactivity
QVQLVESGGGLVQAGGSLRLSCAASGIIFGYNAMGLYRQAHGKERELVASIDVSGGITYYADSVKGRFTISRDNAKNTVYLQMNSLKPEDTAVYYCAAAVYGRGSPHYYWGEGTQVTVSS	high polyreactivity
QVQLVESRGGLVQAGGSLRLSCAASGRIILIYAMGWYRQAPGKERELVGDISKGGSSTYYADSVKGRVTISRDNAQNTVYLQMNSLKPEDTAVYYCAASGRWTGRQAAYDYWGQGTQVTVSS	high polyreactivity
QVQLVESGGGLVQAGGSLRLSCAASGRTFGPNAMGWYRQAPGKERELVAAIRYSGGSTYYADSVKGRFTISRDNAKNTVYLQMNSLKPEDTAVYYCAADYVSYVGERGTLYVRYDYWGQGTQVTVSS	high polyreactivity
QVQLVESGGGLVQAGGSLRLSCSASGSTFGYNAMGWYRQAPGKERELVAAILFSGGSTFYADSVKGRFTISRDNAKNTVYLQMNSLKQEDTAVYYCADYAGYYAYDSWGQGTQVTVSS	low polyreactivity

Sequence	polyreactivity (PSR sort gate)
QDQLEDSGGGLVQAGGSLRLICAASGSIFDTYAMGWYRQAPGKERELVATISWSGDSTYYADSVKGRFTISRDNAKNTVYLQLNSLKPEDTAVYYCAATTDALVGRPRYDYWGQGTQVTVSS	low polyreactivity
QVQLVESGRRLVQAGGSLRLSCAASGRIFPGNAMGWYRQAPGKERELVAAMSYGGGSTYYADSVKGRFTISRDNAKNTVYLQMNSLKPEDTAVYYCAARYRGSRFDYWGQGTQVTVSS	high polyreactivity
QVQLVESGGGLVQAGGSLRLSCAASGGTFNSNAMGWYRQAPGKERELVAGITSGSDTSYADSVKGRFTISRDNAKNTVYLQMNSLKPEDSAVYYCATRDYPLYGYWGQGTQVTVSS	low polyreactivity
QVQLVESGGGLVQAGGSLRLSCAASGSTFYSYAMGWYRQAPGKERELVAAITSGGSTNYADSVKGRFTISRDNAKNTVYLQMNSLKPEDTAVYYCARKYWHRSYGYDYWGQGTQVTVSS	low polyreactivity
QVQLVESGGGLVQAGGSHRLSCAASGRTFPGNAMGWYRQAPGKERDLVAAITSSGDTDYADSVKGRFKISRDNAKNTVDLQMNSLKTEDRAVYYCAKGYSYGRPWDIYYYWGHGTQVTVSS	low polyreactivity
QVQLVESGGGLVQAGGRLRLSCAASVSIFNPYTMGWYRQAPGKERELVAAISYRGGSTYYADSVKGRFTISRDNAKNTVYLQMNSLKREDTAVYYCAAQVRYLGYRYDYWGQGTQVTVSS	high polyreactivity
QVQIVDSGGGLVQAGGSLRLSCAASGRIIPANAMGWYRQAPGKERELVAAIDYDGGSTYYADSVKGRFTISRDNAKNTVYLQMNSLNPEVTAVYYCAADFYDYEGSYYDYYWGQGTQVTVSS	high polyreactivity
QVQLVESGGGLVQAGGSLRLICAASGSTFTRYAMGWYRQAPGKERELVAAINSSGGRTYYADSVKGRFTISRDNAKNTVYLQMNSLKPEDTAVYYFAATRGRYREDEDYWGQGTQVTVSS	high polyreactivity
QVQLVESGGGIVQAGGSLRLSCAASGRTFRYNTMGSYRQAPGKERELVAAINSRGGSTYYADSVKGRFTISRDNAKNTVYLQMNSLKPEDTAVYYCAALTRYNTASGYDYWGQGTQVTVSS	high polyreactivity
QVQLVESGGGLDQAGGSLRLSCAASGSTFRWYAMGWYRQAPGKERELVAAISSSGGSTYYADSVKGRFTISRDNAKNTVYLQMNSLKPEDTAVYYCAADFTGPFDYWGQGTQVTVSS	high polyreactivity
QDQLVESGGGLVQAGGSLRLSCAASGFTCRYYAMGWYRQAPGKERELVAAITGSGTRTYYADSVKGRFTISRDNAKNTVYLQMNSLKPEETAVYYCYPPRQPRWFDYWGQGTQVTVSS	high polyreactivity
QVQLVESGGGLVQAGGSLRLSCAASGTFSPYAIGWYRQAPGKERELVAVITSNTGRTYADSVKGRFTISRDNAKNTVYLQMNSLKPEDTAVYYCAARSTYRHWYRTGSRFDYWGQGTQVTVSS	low polyreactivity
QVQLVESGGGLVQAGGSLRLSCAASGSTFTSYTMGWYRQAPGKERELVAAISRGGGRTYYADSVKARFTISRDNAKNTVYLQMYRLNPEDTAVYYCNKVLRGDRAGPGYDHWGLGTQVTVSS	high polyreactivity
QVQLVESGGGLVQAGGSLRLSCAASGRTITWNAMGWYRQAPGKERELVADITNNGGSTYYADSVKGRFTISRDNAKNTVYLQMNSLKPEDTAVYYCAKRRNYWFSFDYWGQGTQVTVSS	low polyreactivity
QVLLVESGGGLVQAGGSLRLSCAATARNFKYNTMGWYRQAPGKERELVAAISISGGSTYYADSVKGRFRISRDNSKNTVYLQMNSLKPEDTAVYYCNADTTYLSDYVTFAYWGQVTQVTVSS	low polyreactivity
QVQLVESGGGLVQAGGSLRLSCAASGSIFDYYAMGWYRQAPGKERELVAAISTSTSSTYYADSVKGRFTISRDNAKNTVYLQMNSLKPEDTAVYYCAAEGESQPESPGYDYWGQGTQVTVSS	low polyreactivity
QVQLVESGGGLLQAGGSLRLSCAASGFTFGFYGRGWYRQAPGKERELVAAISYSGGTTYYADSVKARFTIARDNAKNTVYLQMNCLKPQDTAVNYCNTQSRETEDADYWGQGTQVTVSS	high polyreactivity
QVQLVESGGGLVQAGGSLRLSCAASGIIFRTYAMGWYRQAPGKERELVAAITGRGSNTYYADSVKGRFTISRDNAKNTVYLQMNSLKPEETAVYYCNARYYDYRVALRYDYWGQGTQVTVSS	high polyreactivity
QVQIVESGGGLVQAGGSLRISCAASGSIFIYYAMGWYRQAPGKDRELVAAISNGGSTNYADSVKGRFTISRDNANNTVYLLMNRLTPEDTSVFYCNKQYWYWSNTLTIRDYWGQGTQVTVSS	low polyreactivity
QVQLVESGGGLVQAGGSLRLSCAASGNIFDAYGMGWNRQAPGKETELVAAIDWTGGSTYYADSVKGRFTISRDNAKNTVYLQMNSLKPEDTAVYYCAADWGGGYQQYGNDWVNYWGQGTQVTVSS	low polyreactivity
